# Experimental data taken from PMC10914600, “Synthesis of lipid-linked precursors of the bacterial cell wall is governed by a feedback control mechanism in Pseudomonas aeruginosa” (Nature Microbiology, 2024).
# B1: E. coli MraY(T23P) (enzyme)
# chain: MLVWLAEHLVKYYSGFNVFSYLPFRAIVSLLTALFISLWMGPRMIAHLQKLSFGQVVRNDGPESHFSKRGTPTMGGIMILTAIVISVLLWAYPSNPYVWCVLVVLVGYGVIGFVDDYRKVVRKDTKGLIARWKYFWMSVIALGVAFALYLAGKDTPATQLVVPFFKDVMPQLGLFYILLAYFVIVGTGNAVNLTDGLDGLAIMPTVFVAGGFALVAWATGNMNFASYLHIPYLRHAGELVIVCTAIVGAGLGFLWFNTYPAQVFMGDVGSLALGGALGIIAVLLRQEFLLVIMGGVFVVETLSVILQVGSFKLRGQRIFRMAPIHHHYELKGWPEPRVIVRFWIISLMLVLIGLATLKVR
# notes: MraY of E. coli, integral membrane enzyme that forms lipid I; The methods name the plasmid pRSFDuetEcMraY-E_(ID21) without the T23P change; also called ^EcMraY(T23P); MraY of the YES(T23P) complex; source: E. coli ∆slyD BL21(DE3), co-expressed with protein E and SlyD, purified as the YES complex (DDM, NiNTA, SEC)
# Molecular target: the molecule itself
# Assay: cryo-EM structure; YES(T23P) complex (EcMraY(T23P), protein E, SlyD) co-expressed and purified in DDM; 5 mg/ml in 10 mM HEPES pH 7.5, 75 mM NaCl, 2% glycerol, 5 mM βME, 0.03% DDM, 1 mM E. coli total lipid extract; focused refinement of MraY alone after particle subtraction, final map 3.8 Å
protein,measurement,value
B1,stoichiometry N,2
